Laboratory results from publication PMC11310688.

Experiments:
[1] = molecular target: Halo-HA-Nesp2-SR48∼56 (Nesprin-2 spectrin repeats 48-56) (mouse) (UniProt Q6ZWQ0)
[2] = molecular target: dynactin subunit p150^Glued, Q14203-1; assay: co-immunoprecipitation (IP: anti-Halo) with immunoblot quantification; conditions: HEK293 cell lysate, bars mean ± SEM, parent: est. 1.0, read off a plot
[3] = molecular target: kinesin heavy chain (KHC) (UniProt P33176); assay: as above; conditions: HEK293 cell lysate; n = 5 independent experiments; bars mean ± SEM; parent: est. 1.0; read off a plot

| velocity of rapalog-induced peroxisome transport by Nesp2-SR48ΔKASH-FRB (5655-6767aa) along microtubules in MRC5 cells, both directions [1] | Substance | other results |
| --- | --- | --- |
| 1 µm/s | dynein heavy chain (DHC) (from UniProt Q14204 1-4646) (natural protein) |  |
| 1 µm/s | kinesin heavy chain (KHC) (from UniProt P33176 1-963) (natural protein) |  |
|  | Halo-HA-Nesp2-SR48-KASH (Nesprin-2 SR48-56 and the KASH domain) (from UniProt Q6ZWQ0-1) ALALE>AAAAA; SLFTE>AAAAA; RLARE>AAAAA; AAWLG>VVWLG | ratio to parent ([2]; n = 5 independent experiments): 0.19; ratio to parent [3]: 0.22 |
|  | Halo-HA-Nesp2-SR48-KASH (Nesprin-2 SR48-56 and the KASH domain) (from UniProt Q6ZWQ0-1) LEWD>LEAA | ratio to parent ([2]; n = 5 independent experiments): 0.98 |
| 1 µm/s | dynactin subunit p150^Glued (from UniProt Q14203-1 1-1278) (natural protein) |  |
|  | Halo-HA-Nesp2-SR48-KASH (Nesprin-2 SR48-56 and the KASH domain) (from UniProt Q6ZWQ0-1) ALALE>AAAAA; SLFTE>AAAAA; RLARE>AAAAA; LEWD>LEAA; AAWLG>VVWLG | ratio to parent ([2]; 3 data points drawn for this bar): 0.08 |

| Substance | velocity of rapalog-induced peroxisome transport by Nesp2-SR48ΔKASH-FRB (5655-6767aa) along microtubules in MRC5 cells, both directions [1] | other results |
| --- | --- | --- |
| Bicaudal D2 (BicD2) (from UniProt Q8TD16 1-824) (natural protein) | 1 µm/s |  |
